Measurements as given in article PMC6237739.

Key:
rS1-D34 = rS1-D34 (Vibrio vulnificus CMCP6, UniProt A0A3Q0L6Y6); experiment: NMR titration
rS1-D45 = rS1-D45 (Vibrio vulnificus CMCP6, UniProt A0A3Q0L6Y6); experiment: EMSA
rS1 full-length = rS1 full-length (Vibrio vulnificus CMCP6, UniProt A0A3Q0L6Y6); experiment: EMSA
rS1-D5 = rS1-D5 (Vibrio vulnificus CMCP6, UniProt A0A3Q0L6Y6 364-434); experiment: EMSA
rS1-D4 = rS1-D4 (Vibrio vulnificus CMCP6, UniProt A0A3Q0L6Y6 277-347); experiment: EMSA
rS1-D3 = rS1-D3 (Vibrio vulnificus CMCP6, UniProt A0A3Q0L6Y6 192-260); experiment: EMSA

B1: Asw-10 (ssRNA)
RNA: ACUCAUGAAU
rS1-D34
  Kd: 57 ± 6 µM

B2: Asw-8 (ssRNA)
RNA: UCAUGAAU
rS1-D34
  Kd: 197 ± 50 µM

B3: add Asw full-length (112 nt) (structured_RNA)
RNA: GCUUCAUAUAAUCCUAAUGAUAUGGUUUGGGAGUUUCUACCAAGAGCCUUAAACUCUUGAUUAUGAAGUCUGUCGCUUUAUCCGAAAUUUUAUAAAGAGAAGACUCAUGAAU
rS1-D45
  binding result: no binding
rS1 full-length
  Kd: 3 ± 1 µM
rS1-D5
  binding result: no binding
rS1-D4
  binding result: no binding
rS1-D3
  binding result: no binding
